The target in this test is T1, Full-length His-PCAF fusion protein (UniProt Q92831 1-832).
T1 construct: PCAF, full length, cDNA cloned into pET-28a; source: E. coli, purified
In words: pull-down; GST or GST-SIRT7 on glutathione-Sepharose 4B beads incubated with 6xHis-tagged PCAF from E. coli at 4 C overnight; washed with TEN buffer (0.5% NP-40, 20 mM Tris pH 7.4, 0.1 mM EDTA, 300 mM NaCl); immunoblot. The following applies: both partners purified. A general note: A western blot detects proteins with antibodies after separation by electrophoresis.

T1 sequence (Q92831 whole entry, the tested form may be a part): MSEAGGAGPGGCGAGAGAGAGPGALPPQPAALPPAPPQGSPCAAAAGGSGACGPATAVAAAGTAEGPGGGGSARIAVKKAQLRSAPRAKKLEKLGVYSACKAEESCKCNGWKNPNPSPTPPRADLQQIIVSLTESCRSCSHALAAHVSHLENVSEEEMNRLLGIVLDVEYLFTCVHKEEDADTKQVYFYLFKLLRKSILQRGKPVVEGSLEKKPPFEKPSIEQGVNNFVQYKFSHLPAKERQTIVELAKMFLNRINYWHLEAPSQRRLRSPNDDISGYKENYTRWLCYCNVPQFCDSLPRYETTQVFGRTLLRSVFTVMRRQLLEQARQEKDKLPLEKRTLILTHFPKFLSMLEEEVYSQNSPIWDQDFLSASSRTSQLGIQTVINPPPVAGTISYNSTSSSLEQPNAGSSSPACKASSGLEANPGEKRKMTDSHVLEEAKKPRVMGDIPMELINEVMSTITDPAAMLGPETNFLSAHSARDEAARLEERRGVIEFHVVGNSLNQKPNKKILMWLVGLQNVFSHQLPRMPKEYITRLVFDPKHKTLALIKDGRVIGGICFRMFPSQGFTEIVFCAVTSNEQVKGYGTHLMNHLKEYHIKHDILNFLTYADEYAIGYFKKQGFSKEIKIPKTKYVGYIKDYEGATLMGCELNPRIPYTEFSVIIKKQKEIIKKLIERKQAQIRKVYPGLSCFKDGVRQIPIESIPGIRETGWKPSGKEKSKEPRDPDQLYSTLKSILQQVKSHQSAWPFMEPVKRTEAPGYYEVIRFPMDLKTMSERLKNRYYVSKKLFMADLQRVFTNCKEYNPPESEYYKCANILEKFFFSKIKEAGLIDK

B1: full-length GST-tagged SIRT7 (natural protein, UniProt Q9NRC8 1-400, looked up)
chain: MAAGGLSRSERKAAERVRRLREEQQRERLRQVSRILRKAAAERSAEEGRLLAESADLVTELQGRSRRREGLKRRQEEVCDDPEELRGKVRELASAVRNAKYLVVYTGAGISTAASIPDYRGPNGVWTLLQKGRSVSAADLSEAEPTLTHMSITRLHEQKLVQHVVSQNCDGLHLRSGLPRTAISELHGNMYIEVCTSCVPNREYVRVFDVTERTALHRHQTGRTCHKCGTQLRDTIVHFGERGTLGQPLNWEAATEAASRADTILCLGSSLKVLKKYPRLWCMTKPPSRRPKLYIVNLQWTPKDDWAALKLHGKCDDVMRLLMAELGLEIPAYSRWQDPIFSLATPLRAGEEGSHSRKSLCRSREEAPPGDRGAPLSSAPILGGWFGRGCTKRTKRKKVT
notes: SIRT7, full length, cDNA cloned into pGEX-4T1; also called GST-SIRT7; full-length (FL) SIRT7; source: E. coli, purified on glutathione-Sepharose 4B beads
For the molecule B1, the binding result is on record as “binds”.

Values taken from paper PMC7286819, “SIRT7 activates p53 by enhancing PCAF-mediated MDM2 degradation to arrest the cell cycle” (Oncogene, 2020).
